Reference: article PMC5309781

What was measured:
[1] = target: ZIKV NS1 β-ladder domain (NS1 172-352) T233A mutant (Zika virus, strain Suriname); test: AUC; sedimentation velocity, 2.95 mg/mL, 20 mM Hepes pH 7.4, 150 mM NaCl, 20 °C, 53,000 rpm, interference optics, continuous c(s) model in SEDFIT
[2] = target: ZIKV NS1 β-ladder domain (NS1 172-352), strain Suriname (Zika virus, strain Suriname); test: as above

Substance | percent of the protein in the monomeric state [1] [%] | stoichiometry N [1] | percent of the protein in the monomeric state [2] [%] | stoichiometry N [2]
ZIKV NS1 β-ladder domain (NS1 172-352) T233A mutant (domain or fragment) | > 49 | 2 | – | –
ZIKV NS1 β-ladder domain (NS1 172-352), strain Suriname (domain or fragment) | – | – | 7.8 | 2
